According to patent US20230087785A1, “Leucine-Rich Repeat Kinase 2 Allosteric Modulators” (VIB VZW, priority 2020, published 2023):

T1: LRRK2 RocCOR domain construct (human, UniProt Q5S007 1334-1840)
T1 construct: A second construct (residues 1293-1840, N-terminal His6-MBP) was used in certain screening experiments; not shown: N-terminal Twin-Strep-tag; C-terminal His10-tag
T1 sequence: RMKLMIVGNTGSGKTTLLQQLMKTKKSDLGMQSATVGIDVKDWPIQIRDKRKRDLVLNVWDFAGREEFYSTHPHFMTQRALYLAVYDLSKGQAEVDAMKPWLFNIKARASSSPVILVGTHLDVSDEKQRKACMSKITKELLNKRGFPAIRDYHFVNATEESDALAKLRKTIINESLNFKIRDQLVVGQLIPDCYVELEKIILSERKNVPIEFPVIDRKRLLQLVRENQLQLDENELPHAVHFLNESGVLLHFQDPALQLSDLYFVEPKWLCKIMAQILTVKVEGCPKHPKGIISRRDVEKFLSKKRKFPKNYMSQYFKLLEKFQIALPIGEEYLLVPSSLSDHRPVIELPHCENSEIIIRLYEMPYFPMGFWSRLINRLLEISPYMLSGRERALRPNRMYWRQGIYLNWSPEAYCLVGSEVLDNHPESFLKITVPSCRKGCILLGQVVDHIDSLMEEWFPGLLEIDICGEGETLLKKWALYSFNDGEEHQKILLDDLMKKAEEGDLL

T2: LRRK2 Roc domain construct (human, UniProt Q5S007 1329-1520)
T2 construct: not shown: N-terminal His6-tag of pET-28a
T2 sequence: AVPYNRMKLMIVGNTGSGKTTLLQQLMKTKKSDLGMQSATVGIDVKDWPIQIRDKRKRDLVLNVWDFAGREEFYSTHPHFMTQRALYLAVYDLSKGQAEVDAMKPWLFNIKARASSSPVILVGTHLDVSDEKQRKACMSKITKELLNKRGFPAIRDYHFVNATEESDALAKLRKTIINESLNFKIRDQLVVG

B1: Nb39: LRRK2-specific Nanobody, SEQ ID NO: 10 (protein)
VHH: MAQVQLVESGGGLVQAGGSLRLSCRASGGTFSTYAMGWFRQVPGKERETVAAVKWSGDMTYYADSVKGRFTISRDNAKNTVYLQMNSLRPEDTAVYYCAARRGLSYYRGPSEYDYWGQGTQVTVSS
modifications: Nanobody CA14134
B2: Nb22 (CA13611) (VHH)
VHH: QVQLVESGGGLVQAGGSLRLSCAASGRTFSSYTMGWFRQAPGKEREFVAAIRWSGGSTYYADSVKGRFTISRDNAKNTVYLQMNSLKPEDTAVYYCAASDRGGFIATSGGWMDYWGKGTQVTVSS

Experiments:
[1] = target: T3, LRRK2(G2019S) (Homo sapiens, UniProt Q5S007, G2019S/M2397T/R50H); assay: In cellulo phospho-Rab / LRRK2 autophosphorylation assay in HEK293T cells; format: cell-based; parameters: key to Functional Group (see FIG. 2d): Group 1: group 1: Nbs that inhibit both LRRK2 autophosphorylation and Rab10 phosphorylation in cells; Group 2: group 2: Nbs that inhibit only Rab10 phosphorylation; Group 3: group 3: Nbs that activate LRRK2 kinase activity; Group 4: group 4: Nbs that have no consistent/clear effect on LRRK2 kinase activity
T3 construct: SF tag (FLAG + Twin-Strep); expressed in transfected cells; host or cells: HEK 293T
T3 sequence (Q5S007 whole entry R50H/G2019S/M2397T): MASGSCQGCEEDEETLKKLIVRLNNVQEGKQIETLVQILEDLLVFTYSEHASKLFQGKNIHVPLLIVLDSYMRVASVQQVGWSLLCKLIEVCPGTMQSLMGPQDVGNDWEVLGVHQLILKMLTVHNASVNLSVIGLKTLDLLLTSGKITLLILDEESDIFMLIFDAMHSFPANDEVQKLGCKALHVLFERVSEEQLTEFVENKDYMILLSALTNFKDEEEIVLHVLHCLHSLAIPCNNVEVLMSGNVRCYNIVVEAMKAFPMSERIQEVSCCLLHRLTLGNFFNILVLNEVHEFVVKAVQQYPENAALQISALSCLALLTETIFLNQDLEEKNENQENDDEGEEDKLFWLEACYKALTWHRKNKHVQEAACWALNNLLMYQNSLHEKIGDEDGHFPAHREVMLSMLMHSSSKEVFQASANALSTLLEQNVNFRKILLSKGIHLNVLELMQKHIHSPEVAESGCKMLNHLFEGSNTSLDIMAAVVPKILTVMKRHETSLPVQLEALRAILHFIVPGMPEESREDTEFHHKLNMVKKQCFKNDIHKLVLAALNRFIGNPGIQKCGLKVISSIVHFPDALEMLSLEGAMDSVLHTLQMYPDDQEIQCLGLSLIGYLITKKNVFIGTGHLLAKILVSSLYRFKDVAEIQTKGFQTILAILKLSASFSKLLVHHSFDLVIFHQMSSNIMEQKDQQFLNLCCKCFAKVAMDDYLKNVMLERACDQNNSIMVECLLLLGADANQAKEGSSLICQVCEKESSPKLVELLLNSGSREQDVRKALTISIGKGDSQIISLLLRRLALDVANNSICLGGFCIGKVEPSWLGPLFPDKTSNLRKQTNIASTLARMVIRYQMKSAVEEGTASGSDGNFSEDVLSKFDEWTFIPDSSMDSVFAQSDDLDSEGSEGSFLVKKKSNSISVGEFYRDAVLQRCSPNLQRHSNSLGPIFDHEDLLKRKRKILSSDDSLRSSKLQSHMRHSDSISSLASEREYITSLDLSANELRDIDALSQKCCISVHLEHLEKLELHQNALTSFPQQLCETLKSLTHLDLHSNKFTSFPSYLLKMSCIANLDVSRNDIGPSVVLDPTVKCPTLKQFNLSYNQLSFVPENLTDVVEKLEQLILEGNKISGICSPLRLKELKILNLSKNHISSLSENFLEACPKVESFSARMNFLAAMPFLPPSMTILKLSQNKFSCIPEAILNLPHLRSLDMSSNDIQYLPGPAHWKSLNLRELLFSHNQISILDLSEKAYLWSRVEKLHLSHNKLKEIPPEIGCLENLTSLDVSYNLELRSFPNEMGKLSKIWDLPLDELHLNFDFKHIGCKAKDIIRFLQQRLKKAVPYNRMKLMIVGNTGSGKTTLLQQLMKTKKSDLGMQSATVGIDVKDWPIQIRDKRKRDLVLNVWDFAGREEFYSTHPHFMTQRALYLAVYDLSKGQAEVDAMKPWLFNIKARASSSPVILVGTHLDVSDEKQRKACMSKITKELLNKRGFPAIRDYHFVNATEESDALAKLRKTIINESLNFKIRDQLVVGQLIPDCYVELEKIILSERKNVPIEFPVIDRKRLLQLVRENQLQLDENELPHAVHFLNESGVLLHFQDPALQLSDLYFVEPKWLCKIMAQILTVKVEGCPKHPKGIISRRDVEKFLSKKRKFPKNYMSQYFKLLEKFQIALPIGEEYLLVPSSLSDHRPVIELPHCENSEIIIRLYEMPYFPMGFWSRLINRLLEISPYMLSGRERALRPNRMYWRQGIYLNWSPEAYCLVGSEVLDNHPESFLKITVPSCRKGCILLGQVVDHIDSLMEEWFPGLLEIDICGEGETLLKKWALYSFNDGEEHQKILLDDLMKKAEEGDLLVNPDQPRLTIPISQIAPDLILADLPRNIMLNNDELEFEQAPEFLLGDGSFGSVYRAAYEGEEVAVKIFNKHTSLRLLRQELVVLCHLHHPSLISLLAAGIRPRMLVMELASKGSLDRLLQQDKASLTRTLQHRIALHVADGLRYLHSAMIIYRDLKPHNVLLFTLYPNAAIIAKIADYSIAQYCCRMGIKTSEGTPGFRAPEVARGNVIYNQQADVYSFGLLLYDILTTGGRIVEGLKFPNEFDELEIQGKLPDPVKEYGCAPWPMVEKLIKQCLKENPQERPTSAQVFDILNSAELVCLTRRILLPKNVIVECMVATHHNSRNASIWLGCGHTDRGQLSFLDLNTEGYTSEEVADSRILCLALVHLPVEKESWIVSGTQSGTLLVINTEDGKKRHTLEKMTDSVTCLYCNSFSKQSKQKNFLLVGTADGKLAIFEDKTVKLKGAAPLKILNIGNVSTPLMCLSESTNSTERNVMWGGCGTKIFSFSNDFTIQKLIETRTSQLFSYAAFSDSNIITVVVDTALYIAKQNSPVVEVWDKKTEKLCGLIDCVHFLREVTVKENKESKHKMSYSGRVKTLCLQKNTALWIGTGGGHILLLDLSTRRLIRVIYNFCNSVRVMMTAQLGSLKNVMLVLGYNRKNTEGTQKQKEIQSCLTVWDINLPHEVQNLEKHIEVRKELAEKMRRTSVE
Method: (FIGS. 2A-2C) LRRK2(G2019S) and its effector Rab29 were overexpressed together with GFP-fused Nbs (“Fluobody”) in HEK293T cells. A negative control, where no Nb is overexpressed (“No Nb”) is also included. […] In rows labeled “pLRRK2”, LRRK2 pS1292 levels are determined by Western Blot using a site-specific anti-pLRRK2(pS1292) antibody (Abcam, ab203181) (shown at different times of development). In the rows labeled “pRAB10”, endogenous pT72-Rab10 levels are determined by Western Blot using the MJFF/Abcam antibody MJF-R21 (Abcam, ab230261) (shown at different times of development). The three lower rows contain controls of LRRK2 (rat anti-LRRK2, 24D8), Fluobody (rat anti-GFP) and Rab10 (rabbit anti-Rab10) expression levels. (FIG. 2D) Based on the results of panels (FIGS. 2A-2C) the Nbs can be divided into 4 functional groups, with group 1: Nbs that inhibit both LRRK2 autophosphorylation and Rab10 phosphorylation in cells; group 2: Nbs that inhibit only Rab10 phosphorylation; group 3: Nbs that activate LRRK2 kinase activity; group 4: Nbs that have no consistent/clear effect on LRRK2 kinase activity.
To assess the influence of the Nbs on LRRK2 kinase activity we monitored two physiologically and disease relevant activities of LRRK2: phosphorylation of the endogenous substrate Rab10 at position T72 and LRRK2 autophosphorylation at position S1292 [25-30]. […] In our cellular assay we thus co-expressed LRRK2(G2019S), Rab29 and the different Nb-GFP fusions in HEK 293T cells (FIG. 2a-c).
HEK 293T cells were cultured in DMEM (supplemented with 10% Fetal Bovine Serum, […] L-Glutamine and 0.5% Pen/Strep). For the assay, the cells were seeded onto six-well plates and transfected at a confluency of 50-70% with the individual Nb-GFP expression constructs, SF-tagged LRRK2(G2019S) and FLAG-HA Rab29 using a self-made polyethylenimine (PEI)-based transfection reagent. After 48 hrs cells were lysed in lysis buffer [30 mM Tris-HCL (pH7.4), 150 mM NaCl, 0.5% Nonident-P40, complete protease inhibitor cocktail, phosphatase inhibitor cocktail II & III (all Sigma)]. Lysates were cleared by centrifugation at 10,000×g and adjusted to a protein concentration of 1 μg/μl in 1× Laemmli Buffer. Samples were subsequently subjected to SDS PAGE and Western Blot analysis to determine LRRK2 pS1292 and Rab10 T72 phosphorylation levels, as described below. Total LRRK2 and Rab10 levels were determined as a reference.
For western blot analysis, protein samples were separated by SDS-PAGE using NuPAGE 10% Bis-Tris gels (Invitrogen) and transferred onto PVDF membranes (Thermo Fisher). To allow simultaneous probing for LRRK2 on the one hand and Rab and the Nb-GFP fusions on the other hand, membranes were cut horizontally at the 140 kDa MW marker band. After blocking non-specific binding sites with 5% non-fat dry milk in TBST (1 h, RT) (25 mM Tris, pH 7.4, 150 mM NaCl, 0.1% Tween-20), membranes were incubated overnight at 4° C. with primary antibodies at dilutions specified below. Phospho-specific antibodies were diluted in TBST/5% BSA (Roth GmbH). Non-phospho-specific antibodies were diluted in TBST/5% non-fat dry milk powder (BioRad). Phospho-Rab10 levels were determined by the site-specific rabbit monoclonal antibody anti-pRAB10([…]) (Abcam, ab230261) and LRRK2 autophosphorylation was determined by the site-specific rabbit monoclonal antibody anti-pLRRK2(pS1292) (Abcam, ab203181), both at a dilution of 1:2,000. Total LRRK2 levels were determined by the in-house rat monoclonal antibody anti-pan-LRRK2 (clone 24D8; 1:10,000). Total Rab10 levels were determined by the rabbit monoclonal antibody anti-RAB10/ERP13424 (Abcam, ab181367) at a dilution of 1:5,000. Nb-GFP fusion proteins were detected using the rat monoclonal antibody anti-GFP (clone 3H9, ChromoTec) at a dilution of 1:2,000. For detection, goat anti-rat IgG or anti-rabbit IgG HRP-coupled secondary antibodies (Jackson ImmunoResearch) were used at a dilution of 1:15,000 in TBST/5% non-fat dry milk powder. […]

[2] = target: T4, endogenous LRRK2 (Mus musculus, UniProt Q5S006); assay: Colocalization of GFP-Nbs with endogenous LRRK2 on zymosan-containing phagosomes in RAW264.7 cells; format: cell-based; details: RAW264.7 cells transfected with GFP-Nbs, zymosan 30 mins, fixed cells
T4 construct: endogenous in cells; host or cells: RAW264.7
Method: RAW264.7 cells were transfected with GFP-fused Nbs and treated with Zymosan for 30 mins. Recruitment of LRRK2 and Nbs to the phagosomes was analyzed by immunofluorescence. FIG. 16A, images for Nb38, Nb22, Nb23, Nb40, No Nb, or Irrelevant (IRR) Nb treatments; FIG. 16B, images for Nb36, Nb42, Nb17, Nb39, Nb1, and Nb6 treatments. Scale bar=10 μm.
To test whether Nbs can trace and visualize endogenous LRRK2 in fixed cells, we generated green fluorescent protein (GFP)-Nb fusions (fluobodies) as described before. Recently, it was shown that LRRK2 is recruited to phagosomes upon induction of phagocytosis in immune cells. Therefore, RAW264.7 cells were transfected with these fluobodies and treated with killed yeast bioparticles “zymosan” to induce phagocytosis.
RAW264.7 cells (ATCC® SC-6003™) were transfected with peGFP-Nb constructs using JetOPTIMUS (Polyplus transfection) for 24 hrs and then stimulated with Zymosan particles (Sigma Aldrich) for 30 mins ([…]). Immunostaining for LRRK2 was performed as reported before. Briefly, cells fixed with 4% (w/v) paraformaldehyde for 30 min, followed by treatment with 100% EtOH at −20° C. Sampled were permeabilized with PBS/0.5% Triton X-100 and blocked with 3% BSA. Primary antibodies (rabbit anti-LRRK2, c41-2, Abcam and mouse anti-GFP, G6539, Sigma Aldrich) were diluted in PBS containing 3% BSA and 0.5% Triton X-100 and incubated overnight at 4° C. After three 5-min washes with PBS, secondary fluorescently labeled antibodies (anti-rabbit-Alexa fluor 568 and anti-mouse-Alexa fluor 488, Invitrogen) were added in a similar manner to primary antibodies and incubated for 1 hour at room temperature. Cells were washed twice with 1×PBS and mounted with Fluroshield antifade reagent with DAPI (SigmaAldrich). Images were acquired on Zeiss LSM800 confocal laser scanning microscope. Image analysis of z-scan was done using the Zeiss microscope software ZEN.

[3] = target: T1, LRRK2 RocCOR domain construct; assay: ELISA, antigen coated on the plate, purified Nb detected via its EPEA tag
Source text: (§1) We recombinantly expressed and purified the RocCOR, Roc, COR-B and kinase-WD40 (K-WD40) domain constructs of LRRK2 (FIG. 7). Subsequently, we performed an ELISA in which all these domain constructs were coated in parallel next to each other in the same ELISA plate, and where we subsequently detected binding of the 42 purified Nbs. […] To enrich in Nbs directed against the Roc domain we specifically included a selection step with either Roc-GTPγS or Roc-GDP.

[4] = target: T5, LRRK2 COR-B construct (C-terminal part of the COR domain), His6-MBP tagged (human, UniProt Q5S007 1672-1840); assay: as above
T5 construct: also called (MBP-)COR-B; not shown: N-terminal His6-MBP-tag of pDEST-566
Source text: as §1

[5] = target: T2, LRRK2 Roc domain construct; assay: as above
Source text: as §1

[6] = target: T6, Full-length human Leucine-rich repeat kinase 2 (LRRK2), N-terminal Strep/Flag (SF) tagged (human, UniProt Q5S007 1-2527); assay: BLI; Nb on LRRK2 trapped on streptavidin sensor via biotinylated Nb40; steady-state fit
T6 construct: Purified from HEK293T cells in presence of GDP or GTPγS; also called FL LRRK2; FL-LRRK2
T6 sequence (Q5S007 other isoform, or with tags, fused parts or gaps limits assumed): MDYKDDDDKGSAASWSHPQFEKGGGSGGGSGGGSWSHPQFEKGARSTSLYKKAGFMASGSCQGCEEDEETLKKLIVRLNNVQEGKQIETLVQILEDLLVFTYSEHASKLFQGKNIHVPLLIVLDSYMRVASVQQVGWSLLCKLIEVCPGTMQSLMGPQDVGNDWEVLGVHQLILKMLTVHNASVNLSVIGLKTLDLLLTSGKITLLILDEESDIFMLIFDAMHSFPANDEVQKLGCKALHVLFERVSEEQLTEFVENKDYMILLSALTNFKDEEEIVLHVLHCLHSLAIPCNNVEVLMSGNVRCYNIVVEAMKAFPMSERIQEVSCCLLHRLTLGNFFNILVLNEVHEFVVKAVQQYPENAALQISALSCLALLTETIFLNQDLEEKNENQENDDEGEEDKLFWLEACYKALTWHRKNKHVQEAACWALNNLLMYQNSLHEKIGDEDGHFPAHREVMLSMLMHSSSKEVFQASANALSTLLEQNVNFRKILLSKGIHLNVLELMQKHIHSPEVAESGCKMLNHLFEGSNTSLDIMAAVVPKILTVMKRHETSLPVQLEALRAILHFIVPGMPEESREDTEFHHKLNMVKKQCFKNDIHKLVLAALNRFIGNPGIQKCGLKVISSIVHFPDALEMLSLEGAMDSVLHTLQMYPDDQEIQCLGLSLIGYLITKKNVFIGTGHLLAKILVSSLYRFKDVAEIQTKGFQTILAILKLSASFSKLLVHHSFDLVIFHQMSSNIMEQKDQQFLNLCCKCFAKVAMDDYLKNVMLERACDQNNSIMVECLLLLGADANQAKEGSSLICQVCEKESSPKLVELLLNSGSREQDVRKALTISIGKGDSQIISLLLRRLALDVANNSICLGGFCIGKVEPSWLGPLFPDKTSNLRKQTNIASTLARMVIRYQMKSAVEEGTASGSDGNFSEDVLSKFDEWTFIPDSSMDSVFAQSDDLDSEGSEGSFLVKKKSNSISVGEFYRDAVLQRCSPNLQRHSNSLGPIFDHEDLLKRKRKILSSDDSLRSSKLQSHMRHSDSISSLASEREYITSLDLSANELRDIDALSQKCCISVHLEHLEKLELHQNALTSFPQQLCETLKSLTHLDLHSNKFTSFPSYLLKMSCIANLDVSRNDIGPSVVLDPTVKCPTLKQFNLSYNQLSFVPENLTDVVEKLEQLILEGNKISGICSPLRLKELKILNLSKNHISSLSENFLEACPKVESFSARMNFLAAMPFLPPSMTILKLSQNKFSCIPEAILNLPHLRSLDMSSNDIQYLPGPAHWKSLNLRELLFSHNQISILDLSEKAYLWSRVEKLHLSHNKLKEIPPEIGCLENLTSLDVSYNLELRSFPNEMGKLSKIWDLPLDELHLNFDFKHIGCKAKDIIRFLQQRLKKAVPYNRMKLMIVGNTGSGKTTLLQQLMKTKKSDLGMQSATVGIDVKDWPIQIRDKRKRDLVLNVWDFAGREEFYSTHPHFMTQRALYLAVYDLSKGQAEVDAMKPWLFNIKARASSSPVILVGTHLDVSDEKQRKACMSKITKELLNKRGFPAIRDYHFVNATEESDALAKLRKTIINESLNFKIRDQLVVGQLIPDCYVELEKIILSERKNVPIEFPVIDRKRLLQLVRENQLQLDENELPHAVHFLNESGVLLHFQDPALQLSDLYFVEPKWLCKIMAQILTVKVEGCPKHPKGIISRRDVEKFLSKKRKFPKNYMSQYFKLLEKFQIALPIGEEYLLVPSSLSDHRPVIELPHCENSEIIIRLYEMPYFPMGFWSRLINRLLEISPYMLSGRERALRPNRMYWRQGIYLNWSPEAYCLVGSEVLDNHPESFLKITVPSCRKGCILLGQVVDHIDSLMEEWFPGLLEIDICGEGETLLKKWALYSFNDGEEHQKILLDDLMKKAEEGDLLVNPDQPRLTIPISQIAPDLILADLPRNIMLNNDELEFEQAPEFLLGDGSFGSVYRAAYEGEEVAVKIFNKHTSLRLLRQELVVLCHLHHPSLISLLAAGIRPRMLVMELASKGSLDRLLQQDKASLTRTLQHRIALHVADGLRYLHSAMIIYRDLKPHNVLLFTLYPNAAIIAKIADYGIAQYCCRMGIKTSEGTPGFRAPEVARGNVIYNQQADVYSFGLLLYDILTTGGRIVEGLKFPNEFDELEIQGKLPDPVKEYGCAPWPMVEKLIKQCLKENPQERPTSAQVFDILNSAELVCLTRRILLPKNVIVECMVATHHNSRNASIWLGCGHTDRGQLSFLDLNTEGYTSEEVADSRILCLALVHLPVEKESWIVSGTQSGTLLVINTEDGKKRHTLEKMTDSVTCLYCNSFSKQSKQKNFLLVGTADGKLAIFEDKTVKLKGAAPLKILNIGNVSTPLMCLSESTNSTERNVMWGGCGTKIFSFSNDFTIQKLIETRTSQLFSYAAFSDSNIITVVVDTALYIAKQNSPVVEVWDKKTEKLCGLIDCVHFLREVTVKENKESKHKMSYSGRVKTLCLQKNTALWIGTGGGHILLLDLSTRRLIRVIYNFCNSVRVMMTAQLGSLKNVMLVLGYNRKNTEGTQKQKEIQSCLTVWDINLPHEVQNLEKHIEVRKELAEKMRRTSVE
Method: To determine the binding affinity (dissociation constant KD) of the ten Nbs for LRRK2, two methods were used in parallel: microscale thermophoresis (MST) and bio-layer interferometry (BLI). For the MST experiment, we site-specifically labeled the ten Nbs with a m-TAM RA fluorophore at its C-terminus, using sortase-mediated coupling, and then titrated increasing amounts of full-length LRRK2 to these Nbs (FIGS. 13A-13E).
Biolayer interferometry (BLI) measurements were performed using an Octet Red96 (Forte Bio, Inc.) system in a buffer containing 50 mM HEPES pH 8.0, 150 mM NaCl, 10 mM MgCl₂, 5% glycerol, 0.1% BSA, 0.05% Tween, at 25° C. and with shaking speed 1000 rpm. […] The biotinylated Nbs were first loaded on pre-equilibrated SA biosensors at a concentration of 5 μg/mL. This Nb-loaded sensor was then used to trap FL-LRRK2 from a 50 nM LRRK2 solution. […] All experiments were performed in triplicate.

[7] = target: T6, Full-length human Leucine-rich repeat …; assay: MST; LRRK2 titrated to m-TAMRA-labelled Nb, 500 µM GDP
Method: Microscale thermophoresis (MST) experiments were performed for determining equilibrium binding affinities (KD) of Nbs binding to FL-LRRK2. Therefore, Nb were site-specifically labelled at their C-terminus with m-TAMRA, using Sortase-mediated peptide exchange. The Nbs were recloned into a pHEN29 vector which is subsequently used to express and purify the Nbs with a C-terminal LPETGG-His₆-EPEA tag. Exchange of the latter peptide with an m-TAMRA-labeled GGGYK peptide (GenicBio, Shanghai, China) was performed using Sortase, and unlabeled Nb and unincorporated peptide were removed using a Ni-NTA and SEC purification step, respectively. […] After incubation at 4° C. for 30 mins, samples were loaded in capillaries and measurements were performed at 25° C. using 50-70% LED power and 80% laser intensity (laser on-time: 30 s, laser off-time: 5 s). All experiments were performed in triplicate.

Row | Molecule | influence on LRRK2 kinase activity compared to the controls ([1]; HEK 293T cells co-expressing LRRK2(G2019S), Rab29 and Nb-GFP, Western blot) | Functional Group (see FIG. 2d) ([1]; classification by effect on in cellulo LRRK2(G2019S) kinase activity) | colocalization with endogenous LRRK2 on phagosomes [2] | binding result [3] | binding result [4] | binding result [5] | Kd [6] [nM] | Kd [7] [nM]
1 | B1 | no influence on LRRK2 kinase activity | Group 4 | LRRK2 recruitment to phagosomes was slightly detectable | – | – | – | – | –
2 | B2 | – | – | – | no binding (tested: not given) | no binding (tested: not given) | no binding (tested: not given) | 76 | 145
